Experimental data: paper PMC12796746, “Profiling the TRPV4 ankyrin repeat domain interactome and its disruption by neuromuscular disease-causing mutations” (The Journal of Biological Chemistry, 2025)

B1: OTUB2 (on the HuProt array) (enzyme, human, UniProt Q96DC9 1-234, looked up)
chain: MSETSFNLISEKCDILSILRDHPENRIYRRKIEELSKRFTAIRKTKGDGNCFYRALGYSYLESLLGKSREIFKFKERVLQTPNDLLAAGFEEHKFRNFFNAFYSVVELVEKDGSVSSLLKVFNDQSASDHIVQFLRLLTSAFIRNRADFFRHFIDEEMDIKDFCTHEVEPMATECDHIQITALSQALSIALQVEYVDEMDTALNHHVFPEAATPSVYLLYKTSHYNILYAADKH
notes: deubiquitinase OTUB2, human, spotted on the HuProt array; source: bought: CDI Laboratories (HuProt v2.0 microarray)
B2: 3-hydroxybutyrate dehydrogenase type 2 (natural protein, human, UniProt Q9BUT1 1-245, looked up)
chain: MGRLDGKVIILTAAAQGIGQAAALAFAREGAKVIATDINESKLQELEKYPGIQTRVLDVTKKKQIDQFANEVERLDVLFNVAGFVHHGTVLDCEEKDWDFSMNLNVRSMYLMIKAFLPKMLAQKSGNIINMSSVASSVKGVVNRCVYSTTKAAVIGLTKSVAADFIQQGIRCNCVCPGTVDTPSLQERIQARGNPEEARNDFLKRQKTGRFATAEEIAMLCVYLASDESAYVTGNPVIIDGGWSL
notes: human, spotted on the HuProt array; also called BDH2; source: bought: CDI Laboratories (HuProt v2.0 microarray)
B3: Cysteine-rich DPF motif domain-containing protein 1 (natural protein, human, UniProt Q6NVV7 1-123, looked up)
chain: MASHVECRPLGVFECELCTLTAPYSYVGQKPPNTQSMVLLEESYVMKDPFTSDKDRFLVLGSCCSLCSRLVCVGPECSLFYSKRFCLPCVRENINAFPQEIRQDLEKRKAPSKRTPSQPGSRT
notes: human, spotted on the HuProt array; also called CDPF1; source: bought: CDI Laboratories (HuProt v2.0 microarray)
B4: Ras-related protein Rab-7L1 (natural protein, human, UniProt O14966 1-203, looked up)
chain: MGSRDHLFKVLVVGDAAVGKTSLVQRYSQDSFSKHYKSTVGVDFALKVLQWSDYEIVRLQLWDIAGQERFTSMTRLYYRDASACVIMFDVTNATTFSNSQRWKQDLDSKLTLPNGEPVPCLLLANKCDLSPWAVSRDQIDRFSKENGFTGWTETSVKENKNINEAMRVLIEKMMRNSTEDIMSLSTQGDYINLQTKSSSWSCC
notes: human, spotted on the HuProt array; also called RAB29; source: bought: CDI Laboratories (HuProt v2.0 microarray)
B5: Protein FAM104B (natural protein, human, UniProt Q5XKR9 1-115, looked up)
chain: MGGCPVRKRRRNGSKEGNHHSTQPKRNKRNPIFQDSQDTEFSWSDNERSSSRINIPERASGPEGNLNQIVTEPDANFPQFLHEGLSKPVYVINWFMSFGPEIKLNTSQQGRNQAV
notes: human, spotted on the HuProt array; source: bought: CDI Laboratories (HuProt v2.0 microarray)
B6: Centrin-3 (natural protein, human, UniProt O15182 1-167, looked up)
chain: MSLALRSELVVDKTKRKKRRELSEEQKQEIKDAFELFDTDKDEAIDYHELKVAMRALGFDVKKADVLKILKDYDREATGKITFEDFNEVVTDWILERDPHEEILKAFKLFDDDDSGKISLRNLRRVARELGENMSDEELRAMIEEFDKDGDGEINQEEFIAIMTGDI
notes: human, spotted on the HuProt array; also called CETN3; source: bought: CDI Laboratories (HuProt v2.0 microarray)
B7: Deoxycytidylate deaminase (natural protein, human, UniProt P32321 1-178, looked up)
chain: MSEVSCKKRDDYLEWPEYFMAVAFLSAQRSKDPNSQVGACIVNSENKIVGIGYNGMPNGCSDDVLPWRRTAENKLDTKYPYVCHAELNAIMNKNSTDVKGCSMYVALFPCNECAKLIIQAGIKEVIFMSDKYHDSDEATAARLLFNMAGVTFRKFIPKCSKIVIDFDSINSRPSQKLQ
notes: human, spotted on the HuProt array; also called DCTD; source: bought: CDI Laboratories (HuProt v2.0 microarray)
B8: 14-3-3 protein eta (natural protein, human, UniProt Q04917 1-246, looked up)
chain: MGDREQLLQRARLAEQAERYDDMASAMKAVTELNEPLSNEDRNLLSVAYKNVVGARRSSWRVISSIEQKTMADGNEKKLEKVKAYREKIEKELETVCNDVLSLLDKFLIKNCNDFQYESKVFYLKMKGDYYRYLAEVASGEKKNSVVEASEAAYKEAFEISKEQMQPTHPIRLGLALNFSVFYYEIQNAPEQACLLAKQAFDDAIAELDTLNEDSYKDSTLIMQLLRDNLTLWTSDQQDEEAGEGN
notes: human, spotted on the HuProt array; also called YWHAH; source: bought: CDI Laboratories (HuProt v2.0 microarray)
B9: Polyadenylate-binding protein-interacting protein 2 (natural protein, human, UniProt Q9BPZ3 1-127, looked up)
chain: MKDPSRSSTSPSIINEDVIINGHSHEDDNPFAEYMWMENEEEFNRQIEEELWEEEFIERCFQEMLEEEEEHEWFIPARDLPQTMDQIQDQFNDLVISDGSSLEDLVVKSNLNPNAKEFVPGVKYGNI
notes: human, spotted on the HuProt array; also called PAIP2; source: bought: CDI Laboratories (HuProt v2.0 microarray)
B10: Myosin light chain 1/3, skeletal muscle isoform (natural protein)
chain: not shown
notes: human, spotted on the HuProt array; also called MYL1; source: bought: CDI Laboratories (HuProt v2.0 microarray)
B11: Short coiled-coil protein (natural protein, human, UniProt Q9UIL1 1-159, looked up)
chain: MRRRVFSSQDWRASGWDGMGFFSRRTFCGRSGRSCRGQLVQVSRPEVSAGSLLLPAPQAEDHSSRILYPRPKSLLPKMMNADMDAVDAENQVELEEKTRLINQVLELQHTLEDLSARVDAVKEENLKLKSENQVLGQYIENLMSASSVFQTTDTKSKRK
notes: human, spotted on the HuProt array; also called SCOC; source: bought: CDI Laboratories (HuProt v2.0 microarray)
B12: Huntingtin-interacting protein K (natural protein, human, UniProt Q9NX55 1-121, looked up)
chain: MATEGDVELELETETSGPERPPEKPRKHDSGAADLERVTDYAEEKEIQSSNLETAMSVIGDRRSREQKAKQEREKELAKVTIKKEDLELIMTEMEISRAAAERSLREHMGNVVEALIALTN
notes: human, spotted on the HuProt array; also called HYPK; source: bought: CDI Laboratories (HuProt v2.0 microarray)
B13: Protein N-terminal glutamine amidohydrolase (natural protein)
chain: not shown
notes: human, spotted on the HuProt array; also called WDYHV1; source: bought: CDI Laboratories (HuProt v2.0 microarray)
B14: Small proline-rich protein 2B (natural protein, human, UniProt P35325 1-72, looked up)
chain: MSYQQQQCKQPCQPPPVCPTPKCPEPCPPPKCPEPCPPPKCPQPCPPQQCQQKYPPVTPSPPCQPKYPPKSK
notes: human, spotted on the HuProt array; also called SPRR2B; source: bought: CDI Laboratories (HuProt v2.0 microarray)
B15: Uncharacterized protein C4orf36 (natural protein, human, UniProt Q96KX1 1-117, looked up)
chain: MAYGVPRKNTVKTILRGSCYNVQEPWDIALLAKTWSTNLANIKLPFLEEISFGGSVQLTKCTTIKDGLLPSAESIKLEREYEVKRLCKLKCQENTSKEIQLLLRERPAGLRRPLPSK
notes: as for B5
B16: ADP-ribosylation factor-like protein 10 (natural protein, human, UniProt Q8N8L6 1-244, looked up)
chain: MAPRPLGPLVLALGGAAAVLGSVLFILWKTYFGRGRERRWDRGEAWWGAEAARLPEWDEWDPEDEEDEEPALEELEQREVLVLGLDGAGKSTFLRVLSGKPPLEGHIPTWGFNSVRLPTKDFEVDLLEIGGSQNLRFYWKEFVSEVDVLVFVVDSADRLRLPWARQELHKLLDKDPDLPVVVVANKQDLSEAMSMGELQRELGLQAIDNQREVFLLAASIAPAGPTFEEPGTVHIWKLLLELLS
notes: human, spotted on the HuProt array; also called ARL10; source: bought: CDI Laboratories (HuProt v2.0 microarray)
B17: Uncharacterized protein C6orf141 (natural protein, human, UniProt Q5SZD1 1-244, looked up)
chain: MNDPFARMETRGPQGAANPMDSSRSLGDLGPFPREVGRGAPLAPGARNPATAGASRSQGGGHEDRTADRALGPRAGEELDRESWVREKVLFLLHPERWLGTRGDPAREEVAGAEDLPHAGGEDHGEEPNYPSVFQRQKRISGRRVAPPRDAADPPKYVLVRVEDYQVTQEVLQTSWAKGRMTTRTEEHFVTALTFRSSREGQPGERWGPAESRALQARTGASRVHAAGRRVSPSPGTWLEEIKL
notes: as for B5

Legend:
[1] = target: T1, TRPV4^WT N-terminal domain (IDR and ARD, amino acids 1-397) (human, UniProt Q9HBA0 1-397); assay: peptide or protein array; HuProt Human Proteome Microarray v2.0, full-length human proteins spotted in duplicate; V5-tagged TRPV4 protein in solution at 1 μM, 1 h at 4 °C, 150 mM NaCl, 2.7 mM KCl, 25 mM Trizma base, 0.05% Tween-20, pH 7.4; detected with Alexa Fluor 647 anti-V5; hit: z-score >= 2 (N terminus: both of 2 slides; ARD constructs: at least 2 of 3 slides); conditions: both partners purified
T1 construct: TRPV4, human, N-terminal domain (IDR and ARD), amino acids 1-397; also called TRPV4^WT N terminus; full N terminus; source: E. coli BL21(DE3), purified; not shown: His6, C-terminal, kept; V5, C-terminal, kept

[2] = target: T2, TRPV4^WT-ARD (amino acids 149-397) (human, UniProt Q9HBA0 149-397); assay: as above; conditions: both partners purified
T2 construct: TRPV4, human, ankyrin repeat domain, amino acids 149-397; source: E. coli BL21(DE3), purified; not shown: His6, C-terminal, kept; V5, C-terminal, kept

Binder	binding result [1]	binding result [2]
B1	binds	
B2		binds
B3		binds
B4		binds
B5		binds
B6		binds
B7		binds
B8		binds
B9		binds
B10		binds
B11		binds
B12		binds
B13		binds
B14		binds
B15		binds
B16		binds
B17		binds
